In assay [1] the target is T1, CLL subset 2 typical BCR on TKO cells (FIG. 1B).
T1 construct: The light chain is the VL3-21 variant and carries R110; also called CLL subset 2 BCR; BCR of interest
Kind of assay: FACS on TKO cells expressing the BCR, hybridoma supernatant. The text has this: (§1) For the screening procedure, different vectors for the following heavy chain (HC) and light chain (LC) combinations of the corresponding CLL-BCRs were used in the previous transformation, and these combinations were used on the surface of the BCR reconstitution system: [0080] Control (transformation vector without BCR) (see FIG. 1A). [0081] Vector with HC/LC (VL3-21) typical of CLL subset 2 (see FIG. 1B). [0082] Vector with a non-CLL subset 2 HC/LC typical for CLL subset 2 (VL3-21; without target motif R110G) (see FIG. 1C) [0083] Vector with a HC typical for CLL subset 2/a non-CLL subset 2 LC (see FIG. 1D) [0084] Vector with a non-CLL subset 2 HC/a non-CLL subset 2 LC (see FIG. 1E) [0085] Vector with HC/LC typical for CLL subset 2 (VL3-21; including mutation R110G (target motif)) (see FIG. 1F).
(§2) In the first round of selection, supernatants from multiple clones were combined and examined with respect to their binding profile to the selection matrix. A positive binding profile is given if a specific binding to the “BCR-of-Interest” is shown. Groups showing such a profile were singulated, and the binding profile of each clone was characterized again on the selection matrix in a second round of selection. Binding of the monoclonal antibodies was verified using a FACS binding assay with a fluorescently labeled anti-mouse IgG antibody. […]

Assay [2] has as its target T1, CLL subset 2 typical BCR on TKO cells …. In words: FACS binding assay on TKO cells, fluorescently labeled anti-mouse IgG.
Text: as §1, §2
(In general: Flow cytometry measures light scatter and fluorescence of single cells or particles in a stream.)

T1 sequence (heavy, as listed by the source, chain 1 of 2): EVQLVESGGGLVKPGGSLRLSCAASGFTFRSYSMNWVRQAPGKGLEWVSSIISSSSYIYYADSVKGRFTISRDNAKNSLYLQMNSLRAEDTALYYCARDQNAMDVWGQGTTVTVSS
T1 sequence (light, as listed by the source, chain 2 of 2): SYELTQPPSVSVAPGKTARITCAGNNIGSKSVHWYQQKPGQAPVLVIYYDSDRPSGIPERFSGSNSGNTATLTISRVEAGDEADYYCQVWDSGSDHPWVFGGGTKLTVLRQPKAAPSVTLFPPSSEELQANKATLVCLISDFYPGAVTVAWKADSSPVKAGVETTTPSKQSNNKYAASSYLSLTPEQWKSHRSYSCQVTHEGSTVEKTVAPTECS

B1: AVA-mAb02 (antibody, V domains shown)
VH: QVQLQQPGAELVRPGVSVKISCKGSGYTFTDYAIHWVKQSHAKSLEWIGVISTYYGDSNYNQKFKGKATMTVNKSSSTAYMELARLTSDDSAIYYCSRDTSNFDYWGQGTTLTVSS
VL: DIQMTQSPSSMYASLGERVTITCKASQDINSHLTWFQQKPGKSPKTLIYRANRLVDGVPSRFSGSGSGQDYSLTISSLEYEDMGIYYCLQYDEFPRTFGGGTKLEIK
notes: Murine monoclonal antibody; Tested as hybridoma supernatant and detected with anti-mouse IgG; also called VL3-21 specific antibody
Consider B1, for which, in assay [1], the binding result was “binds”.

B2: AVA-mAb01 (antibody, V domains shown)
VH: QVQLQQSGPGLVQPSQSLSITCTVSGFSLTSYGIHWVRQSPGKGLEWLGVIWRGGGTDSNAAFMSRLSITKDNSKSQVFFKMNSLQADDTAIYYCARSRYDEEESMNYWGQGTSVTVSS
VL: QIVLTQSPASLSASVGETVTITCRASGNIHSYLAWYQQKQGKSPQLLVYNAKTLADGVPSRFSGSGSGTQYSLKINSLQPEDFGSYYCQHFWNTPPTFGAGTKLELK
notes: Murine monoclonal antibody from a hybridoma, detected with anti-mouse IgG; also called specific monoclonal antibody against subset-2; the selected antibody
With B2, in assay [2], the binding result is “binds”.
